Non-standard residues stand in square brackets, D forms with d. Residues, ends and D or L forms follow the SMILES beside them. No end group written: not given here. d2Nal = N[C@H](Cc1ccc2ccccc2c1)C(=O)O; Aib = CC(C)(N)C(=O)O
How the values were obtained:
[1] = target: VEGFR2 (Homo sapiens, UniProt P35968); experiment: pull-down binding assay with endogenous VEGFR2 from HUVEC lysates; parameters: endogenous in cells; host or cells: HUVEC; conditions: HUVEC lysate, anti-VEGFR2 western blot
Source text: Truncated mutants of KIF13B were expressed in BL21 (DE3) or Rosetta-gami and purified as previously described (Yamada, et al. (2014) J. Cell Sci. 127:4518-30; Yamada, et al. (2007) Biochemistry 46:10039-45).
Using recombinant proteins, the binding sites on KIF13B mediating the interaction with VEGFR2 were identified. KIF13B has a motor, forkhead-associated, membrane-associated guanylate kinase-binding stalk, 2 domains of unknown function (DUFs) (DUF3694), and a proline-rich and cytoskeleton-associated protein glycine-rich domain. The DUFs were identified from amino acid sequence similarity on the Pfam database. It has been previously shown that both domains of DUF3694 directly bind recombinant VEGFR2 in vitro (Yamada, et al. (2007) Biochemistry 46:10039-45). To define the specific peptide sequence inhibiting VEGFR2 trafficking, further analysis of the second DUF3694 domain (DUF2, residues 1112-1281 of KIF13B) was carried out. This was based on stability of this domain and a sequence distinct from binding sites for other cargoes of KIF13B (Horiguchi, et al. (2006) J. Cell Biol. 174:425-436; Hanada, et al. (2000) J. Biol. Chem. 275:28774-2878). DUF2 was divided into 3 parts, DUF2A (residues […]), DUF2B (residues 1168-1216), and DUF2C (residues 1217-1281) and each part was expressed as a recombinant protein in bacteria. VEGFR2 was abundantly expressed in HUVECs; thus, cell lysate from HUVECs was incubated with these recombinant proteins on beads, and VEGFR2 binding was determined using the anti-VEGFR2 antibody.
To identify the minimum binding site on VEGFR2, DUF2C was further truncated (DUF2C1-9) (FIG. 1). […] Stability of the C5 peptide was attributed to the 4-6 C-terminal residues. Accordingly, replacing these C-terminal residues with another a peptide, one or more post-translational modifications, one or more non-natural amino acid residues, a macromolecule such as PEG, or a combination thereof, is expected to stabilize the KAI peptide.
Initially, peptide interaction with VEGFR2 was confirmed using the pull-down assay.
To further define the KIF13B residues involved in binding to VEGFR2, truncations of the DUF2C5 peptide were tested for binding to VEGFR2 (Table 3) and compared to binding of DUF2C5 and peptides flanking this region (FIG. 1).

[2] = system: HUVECs; experiment: VEGF-induced capillary network formation on […] in vitro; type: cell-based, human; conditions: truncated mutant expressed by lentivirus in HUVECs
Procedure: (§1) Collagen invasion assay was performed as previously described (Kang, et al. (2011) J. Biol. Chem. 286:42017-26). In vitro capillary network formation on […] (BD Biosciences, San Jose, Calif.) and scratch wound healing assay were performed as previously described (Humtsoe, et al. (2010) Mol. Cell Biol. 30:1593-1606). Fibrin gel sprouting assay was performed as described by Nakatsu & Hughes ((2008) Methods Enzymol. 443:65-82). VEGF (2.2 nmol/L) stimulation was used for all in vitro angiogenesis assays. Transwell migration assay was performed as described by Kaplan, et al. ((2011) Free Radical Res. 45:1124-35) using VEGF (4.4 nmol/L), sphingosine-1-phosphate (S1P) (1 μmol/L), or basic fibroblast growth factor (bFGF) (50 ng/mL) in the presence or absence of kinesin-derived angiogenesis inhibitor (DUF2C5; residues 1238-1260 of KIF13B) at varying concentrations.
(§2) To test the bioactivity of the truncated mutant of KIF13B, DUF2C was expressed by lentivirus vector in HUVECs. […] The collagen invasion system (Kang, et al. (2011) J. Biol. Chem. 286:42017-42026) was used as another angiogenesis assay to test the peptides. After infection with control lentivirus, FLAG-DUF2C, or FLAG-DUF2, HUVECs were seeded on collagen gels. Cell invasion in response to proangiogenic stimuli SIP and VEGF in the gel was monitored for up to 24 hours.
Bioactivities in two-dimensional capillary network formation assay were assessed in HUVECs expressing KIF13B truncated mutants or vector controls. HUVECs were infected with lentiviruses encoding FLAG-C2, -C3, -C5, -C8, -C9, or vector.
Changes in VEGF-induced network formation assay were assessed in […] plugs. […] VEGF-induced EC sprouting was also determined by 3-dimensional culture of HUVECs on beads (Nakatsu & Hughes (2008) Methods Enzymol. 443:65-82).

[3] = cited from earlier work
[4] = system: vWF positive endothelial cells in tumors; experiment: delivery of DY633-labeled peptide to tumors in H460-tumor bearing SCID mice; type: in vivo, mouse; conditions: 10 mg/kg i.v. via tail vein, tumors dissected after 1 hour
Procedure: Delivery of the DUF2C5 peptide was tested using synthesized peptide covalently conjugated with DY633 fluorescent probe (Pierce). DY633-DUF2C5 (10 mg/kg body weight), DY633-CT23 or DY633 alone were injected intravenous (i.v.) via tail vein in H460-tumor bearing SCID mice. After 1 hour, tumors were dissected and flash frozen in OCT. Cryosections of tumors were co-stained with vWF to visualize endothelial cells in tumors.

[5] = system: HUVECs; experiment: collagen invasion assay; type: cell-based, human; conditions: lentiviral expression; S1P and VEGF; up to 24 hours
Procedure: as §1, §2

[6] = system: vessel formation of mouse ECs; experiment: […] plug vessel formation assay in mice with lentivirus; type: in vivo; conditions: lentivirus s.c. with MATRIGEL, VEGF, bFGF, heparin; C57BL mice
Procedure: Hematoxylin and eosin staining of […] plug was supplemented with 4.4 nmol/L VEGF, 50 ng/mL of basic fibroblast growth factor, 60 U of heparin, and 0.8×10^8 IFU lentivirus (vector control, DUF2, or DUF2C5, or CT) and injected s.c. in C57BL6 mice. Data are expressed as means±SEM. N=4, 4, 5, and 5 for vector control, DUF2, DUF2C5, and CT, respectively. *P<0.05 (one-way analysis of variance). CT, residues 1528-1826 of KIF13B.
For the […] plug assay used to assess vessel formation of mouse ECs, C57BL6 males (Jackson Laboratory) were used as previously described (Yang & Proweller (2011) J. Biol. Chem. 286:13741-53). […] supplemented with 4.4 nmol/1 VEGF, 50 ng/ml bFGF, 60 U heparin, and 0.8×10^8 IFU of lentivirus was injected subcutaneously into abdomen. Four days after injection, […] was collected.
To address the role of KIF13B in mediating angiogenesis in vivo, the […] plug assay was performed in mice using lentivirus expressing truncated mutants of KIF13B. High titer of lentivirus was injected with […] s.c. into C57BL mice in the presence of VEGF, bFGF, and heparin.

Chain of VEGFR2 (P35968 20-1356): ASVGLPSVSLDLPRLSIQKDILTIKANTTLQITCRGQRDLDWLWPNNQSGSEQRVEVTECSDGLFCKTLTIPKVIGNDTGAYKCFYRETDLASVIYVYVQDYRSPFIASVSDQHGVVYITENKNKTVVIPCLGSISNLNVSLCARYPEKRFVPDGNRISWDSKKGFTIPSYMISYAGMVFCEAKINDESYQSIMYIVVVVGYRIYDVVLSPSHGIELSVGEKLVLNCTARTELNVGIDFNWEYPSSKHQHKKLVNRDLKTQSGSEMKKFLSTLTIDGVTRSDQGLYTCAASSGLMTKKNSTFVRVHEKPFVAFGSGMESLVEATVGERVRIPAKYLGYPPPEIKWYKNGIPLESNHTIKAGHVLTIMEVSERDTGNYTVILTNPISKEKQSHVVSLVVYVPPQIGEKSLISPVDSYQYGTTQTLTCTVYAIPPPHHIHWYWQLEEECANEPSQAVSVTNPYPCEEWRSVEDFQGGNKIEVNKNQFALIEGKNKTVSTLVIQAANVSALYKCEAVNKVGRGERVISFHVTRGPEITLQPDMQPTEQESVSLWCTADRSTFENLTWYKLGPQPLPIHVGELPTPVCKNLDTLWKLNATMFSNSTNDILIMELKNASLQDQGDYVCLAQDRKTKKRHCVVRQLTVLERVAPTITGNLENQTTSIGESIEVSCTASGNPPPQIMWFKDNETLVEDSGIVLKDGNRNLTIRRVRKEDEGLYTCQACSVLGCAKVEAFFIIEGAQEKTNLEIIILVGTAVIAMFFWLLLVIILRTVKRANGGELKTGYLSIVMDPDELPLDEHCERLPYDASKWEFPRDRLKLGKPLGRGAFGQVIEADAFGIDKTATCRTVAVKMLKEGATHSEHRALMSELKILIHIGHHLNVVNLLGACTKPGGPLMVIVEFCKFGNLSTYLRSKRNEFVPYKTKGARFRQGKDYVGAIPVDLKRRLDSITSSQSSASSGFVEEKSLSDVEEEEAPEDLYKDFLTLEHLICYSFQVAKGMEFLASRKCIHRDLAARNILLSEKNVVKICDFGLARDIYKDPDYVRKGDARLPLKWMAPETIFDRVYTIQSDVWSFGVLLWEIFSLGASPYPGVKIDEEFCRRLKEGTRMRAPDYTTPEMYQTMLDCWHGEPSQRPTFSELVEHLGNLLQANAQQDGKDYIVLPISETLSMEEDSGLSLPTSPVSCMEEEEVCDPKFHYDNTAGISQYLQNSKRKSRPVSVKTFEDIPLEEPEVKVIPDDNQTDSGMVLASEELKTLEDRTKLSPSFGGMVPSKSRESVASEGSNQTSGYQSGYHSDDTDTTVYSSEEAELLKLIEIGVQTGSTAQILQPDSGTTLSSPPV

## C2: truncated KIF13B domain, residues 1221-1260, recombinant or lentivirus-expressed (FLAG-C2) (VKAEASWDSAVHGCPQLSRGTPVDERLFLIVRVTVQLSHP; not fully specified (N-terminus); also: FLAG tag; UniProt Q9NQT8 1221-1260, looked up, fragment)
[1]
  VEGFR2 binding: bind VEGFR2
[2]
  VEGF-induced capillary network formation: significantly reduced

## peginesatide
[3]; in healthy volunteers
  elimination half-life: 18.9 h

## TPVDERLFLIVRVTVQ (listed as Homo sapiens) [SEQ ID NO:3, Homo sapiens KAI peptide]
[1]
  VEGFR2 binding: sufficient for VEGFR2 binding

## NC(=O)CC[C@@H]1NC(=O)[C@H](Cc2ccccc2)NC(=O)[C@H](Cc2ccc(O)cc2)NC(=O)[C@@H](N)CSSC[C@@H](C(=O)N2CCC[C@H]2C(=O)N[C@@H](CCCN=C(N)N)C(=O)NCC(N)=O)NC(=O)[C@H](CC(N)=O)NC1=O [vasopressin]
[3]; in humans
  half-life: 0.167 to 0.583 h

## SRGTPVDERLFLIVRVT (listed as Homo sapiens) [DUF2C6, KIF13B residues 1238-1254]
[1]
  VEGFR2 binding: partial or unstable binding

## CC[N+](CCCS(=O)(=O)[O-])=c1ccc2c(C=CC=C3N(CCCCCC(=O)O)c4ccc(S(=O)(=O)[O-])cc4C3(C)C)cc(C(C)(C)C)oc-2c1.[Na+] [DY633]
[4]
  delivery into tumor sites (DY633 label in tumor cryosections): not detected

## VRVTVQLSHPADMQLVLR (listed as Homo sapiens) [DUF2C8, KIF13B residues 1251-1268]
[1]
  VEGFR2 binding: weakly bind VEGFR2
[1]; listed as C8
  VEGFR2 binding: partial or unstable binding
[2]
  VEGF-induced capillary network formation: did not significantly reduce

## DUF2A: residues 1111-1167 of KIF13B, recombinant protein (QKLVSKRDKTEDDADREAQLLEMRLTLTEERNAVMVPSAGSGIPGAPAEWTPVPGME; left off: small tags and cut ends)
[1]
  VEGFR2 binding: failed to bind

## albiglutide
[3]; in humans
  half-life: 140 to 170 h

## DUF2B: residues 1168-1216 of KIF13B, recombinant protein (THIPVIFLDLNADDFSSQDNLDDPEAGGWDATLTGEEEEEFFELQIVKQ; left off: small tags and cut ends)
[1]
  VEGFR2 binding: failed to bind

## CC(C)(N)C(=O)N[C@@H](Cc1c[nH]cn1)C(=O)N[C@H](Cc1ccc2ccccc2c1)C(=O)N[C@H](Cc1ccccc1)C(=O)N[C@@H](CCCCN)C(N)=O [Ipamorelin] (H-[Aib]H[d2Nal][dF]K-NH2)
[3]; in humans
  terminal half-life: about 2 hours

## PQLSRGTPVDERLFLIVR (listed as Homo sapiens) [DUF2C9, KIF13B residues 1235-1252]
[1]
  VEGFR2 binding: weakly bind VEGFR2
[1]; listed as C9
  VEGFR2 binding: partial or unstable binding
[2]
  VEGF-induced capillary network formation: did not significantly reduce

## TPVDERLFLIVRVTVQLSHPADMQLVLRKR . . . QGF (listed as Homo sapiens) [DUF2C3, KIF13B residues 1241-1281]
[1]
  VEGFR2 binding: bind VEGFR2
[2]
  VEGF-induced capillary network formation: significantly reduced

B1: DUF2C: residues 1217-1281 of KIF13B, recombinant protein (protein)
chain: HDGEVKAEASWDSAVHGCPQLSRGTPVDERLFLIVRVTVQLSHPADMQLVLRKRICVNVHGRQGF
modifications: left off: small tags and cut ends
notes: residues 1217-1281 of KIF13B, recombinant protein
[1]
  VEGFR2 binding: specifically binds
[2]
  VEGF-induced capillary network formation: sufficient to reduce
[5]
  distance of invasion: significantly reduced
  invasion of HUVECs into collagen gel: significantly reduced
  number of lumen formed: significantly reduced
  thickness of invading sprouts: not different among the groups

B2: DUF2: second DUF3694 domain, residues 1112-1281 of KIF13B (protein, UniProt Q9NQT8 1112-1281, looked up, fragment)
chain: KLVSKRDKTEDDADREAQLLEMRLTLTEERNAVMVPSAGSGIPGAPAEWTPVPGMETHIPVIFLDLNADDFSSQDNLDDPEAGGWDATLTGEEEEEFFELQIVKQHDGEVKAEASWDSAVHGCPQLSRGTPVDERLFLIVRVTVQLSHPADMQLVLRKRICVNVHGRQGF
[6]
  number of vessels in MATRIGEL plug: significantly reduced
[5]
  distance of invasion: significantly reduced
  invasion of HUVECs into collagen gel: significantly reduced
  number of lumen formed: significantly reduced
  thickness of invading sprouts: not different among the groups

B3: CT: C-terminus region of KIF13B (residues 1528 to 1826), negative control (protein, UniProt Q9NQT8 1528-1826, looked up, fragment)
chain: ICDKPAKVPSPPPVIAVTAVTPAPEAQDGPPSPLSEASSGYFSHSVSTATLSDALGPGLDAAAPPGSMPTAPEAEPEAPISHPPPPTAVPAEEPPGPQQLVSPGRERPDLEAPAPGSPFRVRRVRASELRSFSRMLAGDPGCSPGAEGNAPAPGAGGQALASDSEEADEVPEWLREGEFVTVGAHKTGVVRYVGPADFQEGTWVGVELDLPSGKNDGSIGGKQYFRCNPGYGLLVRPSRVRRATGPVRRRSTGLRLGAPEARRSATLSGSATNLASLTAALAKADRSHKNPENRKSWAS
[1]
  VEGFR2 binding: does not bind
[2]
  VEGF-induced capillary network formation: formed capillary networks
[6]
  number of vessels in MATRIGEL plug: no significant effect
